Columns and labels:
[1] = system: peritoneal macrophages from C3H/HeJ mice; assay: Nitrogen monoxide release assay (macrophage activation); type: cell-based; settings: with rIFN-γ, 45-48 hours; compared with the known BPPcysMPEG
Method: Experimental protocol: In brief, peritoneal macrophages from C3H/HeJ mice were used as the macrophage source. They were cultured in 96-well microtiter plates and stimulated simultaneously with rIFN-γ and a serial dilution of macrophage activator. Insofar as necessary, the macrophage activators were dissolved in 25 mM octylglucoside in the first dilution step and then diluted further with medium (i.e. R-Malp-2). After an incubating time of 45-48 hours, the nitrate was reduced with nitrate reductase and the starting substance nitrogen monoxide was determined, as the sum of nitrate and nitrite, using Griess' reagent. 1 unit (U)/ml is defined as the dilution at which half-maximal stimulation takes place.
FIG. 2: Nitrogen monoxide release assay. Peritoneal macrophages from C3H/HeJ mice were used as the macrophage source. They were cultured in 96-well microtiter plates and stimulated simultaneously with rIFN-γ and a serial dilution of macrophage activator. After an incubating time of 45-48 hours, the nitrate was reduced with nitrate reductase and the starting substance nitrogen monoxide was determined, as the sum of nitrate and nitrite, using Griess' reagent.

[2] = system: Ova-specific IgG1 antibodies; assay: Serum Ova-specific antibody titers after immunization (ELISA); type: in vivo, C57BL6 mice; settings: i.n.; by the end of the immunization protocol
Method: Experimental protocol 1: six-eight weeks-old female C57BL6 mice were purchased from Harlan Winkelmann GmbH (Borchen, Germany) and treated in accordance with local and European Community guidelines. Groups of 5 mice each were immunized on day 1, 14 and 28 with 30 μg of Ova (Sigma Chemie, Deisenhofen, Germany) or LPS-free Ova (EndoGrade Ovalbumin, Hyglos GmbH) alone, co-administered with 5 μg of BPPcysMPEG or with 5 to 10 μg of synthetic BPPcysOva^mPEG alone. For intranasal (i.n.) immunization, 10 μl were applied to each naris, whereas for the s.c. the compounds were resuspended in 50 μl of PBS per dose. Serum samples were collected at different time points (day 0, 13, 27 and 38) after immunization and stored at −20° C. prior to determination of Ova-specific antibodies. 96-well Nunc-Immuno MaxiSorp assay plates (Nunc, Roskilde, Denmark) were coated with 100 μl of Ova (Sigma Chemie, Deisenhofen, Germany) at 5 μg/ml in 0.05 M carbonate buffer (pH 8.2) per well. […] Endpoint titers were expressed as the reciprocal log2 of the last dilution, which gave an optical density at 405 nm of 0.1 units above the values of the negative controls after 15 to 30 min of incubation. […]
FIG. 5: Humoral responses stimulated following vaccination using BPPcysOva^mPEG. […] At day 38 post primary immunisation, serum samples were collected and the IgG 1 and IgG2c titres of Ova-specific antibodies were determined by ELISA. […]

[3] = system: Ova-specific CD8+ T cells; assay: Proliferation of CFSE-stained T cells co-cultured with treated DC: CD8+ T cells; type: cell-based, OT1-tg mice; settings: DC incubated with 10 μg/mL for 24 h, co-culture 4 days
Method: (§1) T cell-mediated immune responses were investigated 96 h by measuring the proliferation of cells recovered from spleens after restimulation with BPPcysOva^mPEG. Non-Ag restimulated spleen cells were chosen as negative controls (FIG. 3). […] Taking into consideration that the BPPcysOva^mPEG has a promising effect on DC activation and maturation, next the capacity of these APC to stimulate the proliferation of antigen-specific CD8+ and CD4+ T cells was evaluated. Concentrations below 10^−8 M of BPPcysOva^mPEG were still able to induce an antigen specific proliferation of CD4+ T cells shown by the reduction of CFSE+ cells (FIGS. 4A-E).
(§2) FIG. 4: Proliferation of CD8+, CD4+ and regulatory T cells. DC were generated from bone marrow of C57BL/6 mice and incubated with 10 μg/mL of B) Ova C) Ova peptides, D) Ova in the presence of BPPcysMPEG and E) BPPcysOva^mPEG alone (A) Control) for 24 h. The following day, CD4+ T cells from spleens of OT2-tg animals or CD8+ T cells of OT1-tg animals were isolated. After staining with CFSE, CD8+, CD4+ T cells were co-cultured with adjuvant-treated DCs for 4 days. The decrease of CFSE-FITC expression due to cell division of CD8+ or CD4+ T cells were analysed by flow cytometric analysis. One representative experiment out of two is shown.

[4] = system: Ova-specific CD4+ T cells; assay: Proliferation of CFSE-stained T cells co-cultured with treated DC: CD4+ T cells; type: cell-based, OT2-tg mice; settings: DC incubated with 10 μg/mL for 24 h, co-culture 4 days
Method: as §1, §2

B1: Ova: model antigen ovalbumin (Sigma Chemie) (protein, UniProt P01012 2-386, looked up)
Ovalbumin: GSIGAASMEFCFDVFKELKVHHANENIFYCPIAIMSALAMVYLGAKDSTRTQINKVVRFDKLPGFGDSIEAQCGTSVNVHSSLRDILNQITKPNDVYSFSLASRLYAEERYPILPEYLQCVKELYRGGLEPINFQTAADQARELINSWVESQTNGIIRNVLQPSSVDSQTAMVLVNAIVFKGLWEKAFKDEDTQAMPFRVTEQESKPVQMMYQIGLFRVASMASEKMKILELPFASGTMSMLVLLPDEVSGLEQLESIINFEKLTEWTSSNVMEERKIKVYLPRMKMEEKYNLTSVLMAMGITDVFSSSANLSGISSAESLKISQAVHAAHAEINEAGREVVGSAEAGVDAASVSEEFRADHPFLFCIKHIATNAVLFFGRCVSP
[1]
  potential for activating macrophages (NO secretion): no potency
[2]
  Ova-specific IgG1 endpoint titer in serum: ≤ 10^6
[3]
  stimulation of proliferation of Ova-specific CD8+ T cells by treated DC: very efficiently
[4]
  stimulation of proliferation of Ova-specific CD4+ T cells by treated DC: weak stimulation
